From article PMC9482650, “Quantitative fragmentomics allow affinity mapping of interactomes” (Nature Communications, 2022)

T1: APBA3_1, O96018
T1 sequence (O96018 389-490, limits assumed, looked up): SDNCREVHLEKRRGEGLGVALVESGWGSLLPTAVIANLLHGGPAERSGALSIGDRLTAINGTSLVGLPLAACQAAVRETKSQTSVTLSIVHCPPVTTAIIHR

T2: DFNB31_3, Q9P202
T2 sequence (Q9P202 811-907, limits assumed, looked up): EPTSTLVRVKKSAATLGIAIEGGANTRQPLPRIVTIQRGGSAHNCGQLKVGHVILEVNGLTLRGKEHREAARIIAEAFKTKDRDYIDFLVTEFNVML

T3: DLG3_2, Q92796
T3 sequence (Q92796 221-321, limits assumed, looked up): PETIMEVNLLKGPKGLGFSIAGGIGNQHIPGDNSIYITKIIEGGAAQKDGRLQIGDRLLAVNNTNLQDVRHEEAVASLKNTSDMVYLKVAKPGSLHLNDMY

T4: LIN7A, O14910
T4 sequence (O14910 103-200, limits assumed, looked up): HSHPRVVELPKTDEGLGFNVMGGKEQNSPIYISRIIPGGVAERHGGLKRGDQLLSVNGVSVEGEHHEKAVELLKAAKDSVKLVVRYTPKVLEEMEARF

T5: NHERF3_1, Q5T2W1
T5 sequence (Q5T2W1 4-100, limits assumed, looked up): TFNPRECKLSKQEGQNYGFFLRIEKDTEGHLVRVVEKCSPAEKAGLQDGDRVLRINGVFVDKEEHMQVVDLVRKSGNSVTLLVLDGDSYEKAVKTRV

T6: PARD3B_1, Q8TEW8
T6 sequence (Q8TEW8 196-299, limits assumed, looked up): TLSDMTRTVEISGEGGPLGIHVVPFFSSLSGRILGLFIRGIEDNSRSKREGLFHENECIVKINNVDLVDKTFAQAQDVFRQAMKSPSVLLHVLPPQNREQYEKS

T7: RADIL, Q96JH8
T7 sequence (Q96JH8 971-1071, limits assumed, looked up): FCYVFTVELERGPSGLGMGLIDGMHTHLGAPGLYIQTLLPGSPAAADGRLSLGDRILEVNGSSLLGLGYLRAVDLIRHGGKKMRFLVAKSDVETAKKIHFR

T8: SNTG1, Q9NSN8
T8 sequence (Q9NSN8 52-150, limits assumed, looked up): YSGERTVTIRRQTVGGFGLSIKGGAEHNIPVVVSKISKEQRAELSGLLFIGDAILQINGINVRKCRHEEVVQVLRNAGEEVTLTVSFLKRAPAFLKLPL

T9: SYNJ2BP, P57105
T9 sequence (P57105 8-110, limits assumed, looked up): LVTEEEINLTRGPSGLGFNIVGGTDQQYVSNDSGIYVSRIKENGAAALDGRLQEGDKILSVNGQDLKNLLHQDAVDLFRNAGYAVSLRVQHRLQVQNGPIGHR

T10: TJP3_3, O95049
T10 sequence (O95049 375-456, limits assumed, looked up): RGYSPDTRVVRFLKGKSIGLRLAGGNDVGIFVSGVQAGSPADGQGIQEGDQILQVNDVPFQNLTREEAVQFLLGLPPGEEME

T11: TX1BP3, O14907
T11 sequence (O14907 10-122, limits assumed, looked up): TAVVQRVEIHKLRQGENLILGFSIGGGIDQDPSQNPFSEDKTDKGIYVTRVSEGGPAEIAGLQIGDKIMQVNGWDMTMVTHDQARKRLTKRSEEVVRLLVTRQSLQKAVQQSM


What was measured:
Experiment in all cases: holdup assay
Set-up in all cases: key: below the threshold = too weak to quantify, mostly under pKd 3.1 to 4
Details in all cases: plain residues with an end cap or a label only (N-terminal biotin on a linker: ado-ado)
APBA3_1, O96018 = target: T1, APBA3_1, O96018
CASK, O14936 = target: CASK, O14936
CASK, O14936, sequence (O14936 487-570): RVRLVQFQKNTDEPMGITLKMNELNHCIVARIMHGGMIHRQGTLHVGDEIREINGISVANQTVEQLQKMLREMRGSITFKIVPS

DFNB31_3, Q9P202 = target: T2, DFNB31_3, Q9P202
DLG2_2, Q15700 = target: DLG2_2, Q15700
DLG2_3, Q15700 = target: DLG2_3, Q15700
DLG3_2, Q92796 = target: T3, DLG3_2, Q92796
DLG5_1, Q8TDM6 = target: DLG5_1, Q8TDM6
DLG5_1, Q8TDM6, sequence (Q8TDM6 617-713): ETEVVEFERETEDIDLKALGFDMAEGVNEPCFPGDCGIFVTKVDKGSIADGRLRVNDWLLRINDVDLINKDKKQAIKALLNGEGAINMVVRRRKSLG

FRMPD2_1, Q68DX3 = target: FRMPD2_1, Q68DX3
FRMPD2_1, Q68DX3, sequence (Q68DX3 770-861): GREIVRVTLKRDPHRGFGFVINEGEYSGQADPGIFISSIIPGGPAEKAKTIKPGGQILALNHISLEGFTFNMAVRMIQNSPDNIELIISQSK

FRMPD3, Q5JV73 = target: FRMPD3, Q5JV73
FRMPD3, Q5JV73, sequence (Q5JV73 12-100): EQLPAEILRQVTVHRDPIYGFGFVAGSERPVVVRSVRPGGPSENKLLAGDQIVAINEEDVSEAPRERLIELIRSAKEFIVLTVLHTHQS

FRMPD4, Q14CM0 = target: FRMPD4, Q14CM0
FRMPD4, Q14CM0, sequence (Q14CM0 67-160): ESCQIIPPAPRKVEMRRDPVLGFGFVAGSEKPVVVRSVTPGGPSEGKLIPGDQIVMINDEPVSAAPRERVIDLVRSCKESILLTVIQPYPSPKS

GORASP2, Q9H8Y8 = target: GORASP2, Q9H8Y8
GRIP2_5, Q9C0E4 = target: GRIP2_5, Q9C0E4
GRIP2_5, Q9C0E4, sequence (Q9C0E4 544-642): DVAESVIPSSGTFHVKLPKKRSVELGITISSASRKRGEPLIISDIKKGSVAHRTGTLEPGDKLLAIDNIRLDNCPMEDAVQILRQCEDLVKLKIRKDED

IL16_3, Q14005 = target: IL16_3, Q14005
IL16_3, Q14005, sequence (Q14005 1107-1207): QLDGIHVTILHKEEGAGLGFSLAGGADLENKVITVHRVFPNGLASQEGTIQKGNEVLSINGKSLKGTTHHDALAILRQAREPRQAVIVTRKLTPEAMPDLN

IL16_4, Q14005 = target: IL16_4, Q14005
IL16_4, Q14005, sequence (Q14005 1229-1329): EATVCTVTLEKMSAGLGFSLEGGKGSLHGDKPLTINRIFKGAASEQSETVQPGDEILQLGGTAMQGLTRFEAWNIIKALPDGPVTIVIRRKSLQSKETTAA

Inadl_9, Q8NI35 = target: Inadl_9, Q8NI35
Inadl_9, Q8NI35, sequence (Q8NI35 1530-1615): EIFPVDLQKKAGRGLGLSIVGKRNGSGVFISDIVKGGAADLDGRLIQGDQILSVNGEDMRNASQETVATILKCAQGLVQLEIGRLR

LIN7A, O14910 = target: T4, LIN7A, O14910
MAGI1_1, Q96QZ7 = target: MAGI1_1, Q96QZ7
MAGI1_1, Q96QZ7, sequence (Q96QZ7 1-106): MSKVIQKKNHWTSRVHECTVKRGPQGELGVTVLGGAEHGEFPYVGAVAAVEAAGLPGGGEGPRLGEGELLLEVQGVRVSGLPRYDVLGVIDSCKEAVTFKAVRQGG

MAGI2_3, Q86UL8 = target: MAGI2_3, Q86UL8
MAGI2_3, Q86UL8, sequence (Q86UL8 600-682): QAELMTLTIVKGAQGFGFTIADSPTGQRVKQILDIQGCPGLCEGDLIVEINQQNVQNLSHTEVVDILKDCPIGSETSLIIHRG

MAGI2_6, Q86UL8 = target: MAGI2_6, Q86UL8
MAGI2_6, Q86UL8, sequence (Q86UL8 1141-1229): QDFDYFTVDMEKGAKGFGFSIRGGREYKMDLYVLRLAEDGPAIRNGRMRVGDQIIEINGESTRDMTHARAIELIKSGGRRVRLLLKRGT

NHERF3_1, Q5T2W1 = target: T5, NHERF3_1, Q5T2W1
NOS1, P29475 = target: NOS1, P29475
NOS1, P29475, sequence (P29475 9-101): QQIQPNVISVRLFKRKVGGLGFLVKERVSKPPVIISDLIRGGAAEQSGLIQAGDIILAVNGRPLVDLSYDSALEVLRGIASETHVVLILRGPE

PARD3B_1, Q8TEW8 = target: T6, PARD3B_1, Q8TEW8
RADIL, Q96JH8 = target: T7, RADIL, Q96JH8
SNTG1, Q9NSN8 = target: T8, SNTG1, Q9NSN8
SYNJ2BP, P57105 = target: T9, SYNJ2BP, P57105
TJP3_3, O95049 = target: T10, TJP3_3, O95049
TX1BP3, O14907 = target: T11, TX1BP3, O14907

Row | Binder | pKd (APBA3_1, O96018) | pKd (CASK, O14936) | pKd (DFNB31_3, Q9P202) | pKd (DLG2_2, Q15700) | pKd (DLG2_3, Q15700) | pKd (DLG3_2, Q92796) | pKd (DLG5_1, Q8TDM6) | pKd (FRMPD2_1, Q68DX3) | pKd (FRMPD3, Q5JV73) | pKd (FRMPD4, Q14CM0) | pKd (GORASP2, Q9H8Y8) | pKd (GRIP2_5, Q9C0E4) | pKd (IL16_3, Q14005) | pKd (IL16_4, Q14005) | pKd (Inadl_9, Q8NI35) | pKd (LIN7A, O14910) | pKd (MAGI1_1, Q96QZ7) | pKd (MAGI2_3, Q86UL8) | pKd (MAGI2_6, Q86UL8) | pKd (NHERF3_1, Q5T2W1) | other results
1 | RRLQGTSSMV [GOLT1A, Q6ZVE7] | below the threshold | below the threshold | 3.66 | 4.39 | 4.06 | 4.67 | below the threshold | below the threshold | below the threshold | below the threshold | 4.17 | below the threshold | below the threshold | below the threshold | below the threshold | below the threshold | below the threshold | 3.77 | 3.68 | 4.09 | pKd (NOS1, P29475): 3.77; pKd (PARD3B_1, Q8TEW8): below the threshold; pKd (RADIL, Q96JH8): 4.28; pKd (SNTG1, Q9NSN8): 3.7; pKd (SYNJ2BP, P57105): 4.72; pKd (TJP3_3, O95049): below the threshold; pKd (TX1BP3, O14907): 3.9
2 | LDKESFLTWL [YAP1, P46937] | below the threshold | below the threshold | 5.37 | below the threshold | below the threshold | below the threshold | below the threshold | below the threshold | 4.4 | 5.25 | 4.84 | below the threshold | below the threshold | below the threshold | 3.99 | below the threshold | 3.65 | below the threshold | 4.82 | 5.1 | pKd (NOS1, P29475): 4.03; pKd (PARD3B_1, Q8TEW8): 4.44; pKd (RADIL, Q96JH8): 5.51; pKd (SNTG1, Q9NSN8): below the threshold; pKd (SYNJ2BP, P57105): 4.47; pKd (TJP3_3, O95049): 4.18; pKd (TX1BP3, O14907): 4.26
3 | RDFDYIADWC [PKN2, Q16513] | below the threshold | 3.54 | below the threshold | below the threshold | 3.77 | 4.16 | below the threshold | below the threshold | 3.48 | below the threshold | 3.87 | below the threshold | below the threshold | below the threshold | 4.34 | below the threshold | below the threshold | below the threshold | 3.77 | 4.27 | pKd (NOS1, P29475): 4.12; pKd (PARD3B_1, Q8TEW8): 3.54; pKd (RADIL, Q96JH8): 4.2; pKd (SNTG1, Q9NSN8): below the threshold; pKd (SYNJ2BP, P57105): 3.73; pKd (TJP3_3, O95049): 4.57; pKd (TX1BP3, O14907): below the threshold
4 | TGPWKNETTV [ADGRA1, Q86SQ6] | below the threshold | below the threshold | below the threshold | 5.1 | 4.64 | 5.01 | below the threshold | below the threshold | below the threshold | below the threshold | 3.57 | below the threshold | below the threshold | below the threshold | below the threshold | 3.86 | below the threshold | 3.94 | 3.71 | below the threshold | pKd (NOS1, P29475): below the threshold; pKd (PARD3B_1, Q8TEW8): below the threshold; pKd (RADIL, Q96JH8): 4.04; pKd (SNTG1, Q9NSN8): 4.19; pKd (SYNJ2BP, P57105): 5.13; pKd (TJP3_3, O95049): below the threshold; pKd (TX1BP3, O14907): 4.47
5 | VRPGVKESLV [SCN4A, P35499] | below the threshold | below the threshold | below the threshold | 5.23 | 4.27 | 5 | below the threshold | below the threshold | below the threshold | below the threshold | below the threshold | below the threshold | below the threshold | below the threshold | 3.71 | 3.94 | below the threshold | 4.51 | 3.93 | 4.6 | pKd (NOS1, P29475): 3.97; pKd (PARD3B_1, Q8TEW8): below the threshold; pKd (RADIL, Q96JH8): 4.22; pKd (SNTG1, Q9NSN8): 4.85; pKd (SYNJ2BP, P57105): 5.09; pKd (TJP3_3, O95049): below the threshold; pKd (TX1BP3, O14907): 4.73
6 | ALPLPQSSTC [IGF1R, P08069] | below the threshold | below the threshold | 3.59 | below the threshold | 3.76 | 4.22 | below the threshold | below the threshold | below the threshold | 3.54 | below the threshold | below the threshold | below the threshold | below the threshold | below the threshold | below the threshold | below the threshold | below the threshold | below the threshold | below the threshold | pKd (NOS1, P29475): below the threshold; pKd (PARD3B_1, Q8TEW8): below the threshold; pKd (RADIL, Q96JH8): below the threshold; pKd (SNTG1, Q9NSN8): below the threshold; pKd (SYNJ2BP, P57105): 3.67; pKd (TJP3_3, O95049): below the threshold; pKd (TX1BP3, O14907): below the threshold
